Measured values from patent publication US7410767.
Each block holds one binder with its values, some of them ahead of it.

Columns and labels:
[1] = biological target: T1, HLA-E (as used in the in vitro peptide binding assay and in immunoprecipitation) (human), P13747; experiment: in vitro peptide binding assay (ratio of optical densities); row .221-A*3601
[2] = biological target: T1, HLA-E (as used in the in vitro peptide …); experiment: in vitro peptide binding assay (ratio of optical densities); row .221-B*5501
[3] = biological target: T1, HLA-E (as used in the in vitro peptide …); experiment: in vitro peptide binding assay (ratio of optical densities); row .221-A*0201
[4] = biological target: T1, HLA-E (as used in the in vitro peptide …); experiment: in vitro peptide binding assay (ratio of optical densities); row .221-A*0211
[5] = biological target: T1, HLA-E (as used in the in vitro peptide …); experiment: in vitro peptide binding assay (ratio of optical densities); row .221-A*2403
[6] = biological target: T1, HLA-E (as used in the in vitro peptide …); experiment: in vitro peptide binding assay (ratio of optical densities); row .221-A*2501

Concentration of peptide required to obtain 50% of binding to HLA-E [1]: 0.3 µM
B1: HLA leader sequence peptide (residues 3-11) … (peptide)
peptide: VMAPRTLLL
modifications: not checked

Concentration of peptide required to obtain 50% of binding to HLA-E [2]: > 100 µM
B2: HLA leader sequence peptide (residues 3-11) … (peptide)
peptide: VTAPRTLLL
modifications: not checked

Concentration of peptide required to obtain 50% of binding to HLA-E [3]: 0.06 µM
Concentration of peptide required to obtain 50% of binding to HLA-E [4]: 0.06 µM
Concentration of peptide required to obtain 50% of binding to HLA-E [5]: 0.06 µM
Concentration of peptide required to obtain 50% of binding to HLA-E [6]: 0.06 µM
B3: HLA leader sequence peptide (residues 3-11) … (peptide)
peptide: VMAPRTLVL
modifications: not checked
